Experimental data as given in the DeepSol protein solubility set.

Assay: soluble on expression in E. coli; label from the status in PepcDB or PDB records

Sequence	soluble on expression in E. coli
MGSDKIHHHHHHMKCSKCSAEAIYYAKYNGLYLCRDHFNEMIEGRVKKEIRKQVEFHGDDVTISVALSGGKDSSVTLFLLHKILGNRKNMKIKAFTVDEGIDGYRPSGLESAKRLCTSLGIDHETISFYDSYGLTLDSIVKTNPVKIPCAYCGPLRRKLINEMADKQDADYVALGLNLDDYSQSILMNVAKGDFDRFIRMSPQTDRKVGLVRRIAPLRTILEKEVVLYAVTNDIPFDSSWCPYYSRAQRNVFREVVNKLSEENPSTKFAILKFFDRVRENITTGHEEVKLKRCKICGAPTERDVCTACSSLQEVNEMMAEH	not soluble
MSLNVVVQKYGGSSVATPERIKNVAQRIKKKVDEGYKVVVVVSAMGKTTDNLIKLAKEISPRPDSRELDMLLATGEQVSAALLSMALKDLGVKAKSLNAFQVKIKTTPHHTSARIVDIDDSVIRENLKDYDVLVVTGFQGVNEHGDLTTLGRGGSDTSAVALAAKLRVPCEIYSDVDGIYTCDPRVHPRAKKLAYITYDEALELTALGAKVLHSRSVEIAKKYGIPIYCASSFTEEEGTMVVERLPEWLEEPVVTGATISHGQIKVSISFLPKDVKYITAIFEEVGKRALNVDMISLVPSNGKVFLSFTILEDHKEDLDEALKEALRDVEGWKSTYEGGFAKLSIVGVGMRTSPGVAARFFEALERAGVTPELVTTSEIKISCLVPEEKAEEALKSVIEEFELEGHHHHHH	soluble
MLEDLSQGKGSNHEKRKMESTAQITEEDSKLDEVVGLQKQICDLGTELTRQSSWWCIAHKDLQSQIDALIKENQEIRAELKTLKKQDAEATKACIGSPTPARASNTLPVYIKIEGTDSERTTSWDERDELSGSPPNRSTMATGGTDSQDEMLSFTSVDEKVIHMSSKFLQRSLGRMSPEPLSDSTFLDTESLADIWSSNPETSDGELLLHAQASRVIPCFSPNALWVQNIPTKSRAPKEIQQTSDTTKTDETKEKQHPNGKVERMLSDGRTIITFPNGTRKEISADKKTTLIRFFNGDMKKIKSNQKVIYYYADAQTMHTTYPDGVEVVQFPNKWTEKFYPDGSKETVFPDGTVKRLKDGCEETVFPDGTFVTVKRNGDKTIMFSNGEKEIHTARFKRKEFPDGTTKTVYCNGCQETKYASGRVRVKDEKGTVILDWK	not soluble
MSLKFVGLVGSNAEQSYNRKLLEYIRKQFKLKFELELLEIDEVPMFNQDQSWKDSFQLRLLYNKIIRADGVIIATPEHNHTITAALKSVLEWLSCEVHPFENKPVMIVGASYYDQGTSRAQVHLRKILDAPGVNAYTLPGNEFLLGKAKEAFDDNGNIINQGTVDFLETCLDNFMSYVGVVSKLQKPKPIEPEDLDCNHPIATTITEVDPDDPEWVEKVAEITGAVSGDAYVKLDHGILTVDQINMFLKAMPFELTYADDNNQFLYYNNAHQDPDTMYAKRIPEQSGNRLSTVHNSLPAGRMKNVEWVIGTLRNGNQEYVRTLIPSPNPAVLNTHNYQAMYYDDGSFAGINEIVFNFKPWLDWYLQTTGQRLVGGEGHHHHHH	soluble
RWETHVYRAVKDLLVGLGFTEVLQLVLTSPRLVEAAGFSSMAVEVLNPVQQEYSVLRPTLLITLLQTLRENQHRRKPVKVFEAGNAVYLEDGEPRDEEKLALGVLDEEAGFEDVQAPLYAVLRIMGVDFEVEEASHPMFMEGRTAAVKVGGERLGYIGEVKPEVLEAFGLEYPVAAAEISLEVLARWTSRT	not soluble
MGSDKIHHHHHHMISQNSCQINESDLKNLKDWFYRYVRSFYSSDSIIQQAILLKEKHSLRVCNEILNIGKKLDLSHNALRLAEVMALFHDIGRFQQFVRYQTFVDQKSENHGELGVRILKQEKALAALDRDARELILKAISYHNRLTIPENESPICTYFSRLLRDADKLDIYYVVTTCYNSNGTERKAAVELDLPDTPEVSGEILISLIEEKMISLHQLKSLNDFKLLQMAWVYDINYLPTFRMIYERNYLRKIRDTLPGTEEIEQVYCKLISFLKAKL	not soluble
MIAMAQQDVKPTRSELINLKKKIKLSESGHKLLKMKRDGLILEFFKILNEARNVRTELDAAFAKSTEKINLASAVNGMVAVRSTAFTAKESPEIQLSGHNIMGVVVPKISSTGVRKSLYERGYGIIGTNSYIDETADAYEDLVEKIITAAELETTMKRLLDEIEKTKRRVNALEFKVIPELIDTMKYIRFMLEEMERENTFRLKRVKARMRDLEHHHHHH	not soluble
MGFFSSLSSLFGLGKKDVNIVVVGLDNSGKTTILNQLKTPETRSQQIVPTVGHVVTNFSTQNLSFHAFDMAGQMKYRSTWESYFHSSQGVIFVLDSSDRLRMELLKDELMMVMEHKDVVSRGIPIVILANKMDIPGAMTASDITVALGLNLYRSGTWSIHSTCALTGDGLDKAMQQLSAEITKYMESRRT	not soluble
